# From patent US20130324704A1 (published 2013)
# Positions count from the first letter of the chain named.
# T1: Mouse EGFL7 (mEGFL7-CB-His) (mouse, UniProt Q9QXT5 22-275)
# T1 construct: Limits of the construct and the CB(-His) tag are not described; also called murine EGFL7
# T1 sequence: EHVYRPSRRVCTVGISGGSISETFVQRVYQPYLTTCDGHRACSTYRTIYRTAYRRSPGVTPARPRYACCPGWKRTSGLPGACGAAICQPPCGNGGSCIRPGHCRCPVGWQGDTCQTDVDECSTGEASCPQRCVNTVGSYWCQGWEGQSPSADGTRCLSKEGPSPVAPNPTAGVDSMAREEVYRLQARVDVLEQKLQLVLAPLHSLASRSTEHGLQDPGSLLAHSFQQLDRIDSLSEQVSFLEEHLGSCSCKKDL
# B1: 4F11.v6, IgG (antibody, V domains shown)
# VH: EVQLVESGGGLVQPGGSLRLSCAASGHTFTTYGMSWVRQAPGKGLEWVGWINTHSGVPTYADDFKGRFTISRDNSKNTVYLQMNSLRAEDTAVYYCARLGSSAVDYWGQGTLVTVSS
# VL: DIQMTQSPSSLSASVGDRVTITCKASQSVDYDGDSYMSWYQQKPGKAPKLLIYGASYLESGVPSRFSGSGSGTDFTLTISSLQPEDFATYYCQQNNEDPYTFGQGTKVEIK
# B2: 4F11.v10, IgG (antibody, V domains shown)
# VH: B1 VH with S102Y
# VL: B1 VL
# B3: hu18F7.v6J, IgG (antibody, V domains shown)
# VH: EVQLVESGGGLVQPGGSLRLSCAASGYTFIDYYMNWVRQAPGKGLEWVGDINLDNSGTHYNQKFKGRFTISRDKSKNTAYLQMNSLRAEDTAVYYCAREGVYHDYDDYAMDYWGQGTLVTVSS
# VL: DIQMTQSPSSLSASVGDRVTITCRTSQSLVHINSITYLHWYQQKPGKAPKLLIYRVSNRFSGVPSRFSGSGSGTDFTLTISSLQPEDFATYYCGQSTHVPLTFGQGTKVEIK
# notes: Variant of 18F7.v6; Expressed as IgG
# Experiments:
# [1] = target: EGFL7 coated on plates in the Cell Adhesion Assay (mouse EGFL7 (mEGFL7-CB-His) or human EGFL7 (EGFL7-CB-His)); …; test: cell-based or functional assay
# [2] = target: T1, Mouse EGFL7 (mEGFL7-CB-His); test: SPR (Biacore) at 37 C, IgG over immobilized mEGFL7-CB
Binder,Cell Adhesion Assay Variant/ch4F11 (fold) [1] [fold],Kd [2] [nM]
B1,4.01,
B2,4.38,
B3,,6.8
